US20160272683A1 (Novo Nordisk, published 2016)
One block for each binder: values may come before it. Numbered stars: 1 amine (or outer) side, 2 acyl side, 3 side chain; on linkers, the order of the positions; unused ones are H or OH. * marks the point of attachment. C20 diacid = O=C(O)CCCCCCCCCCCCCCCCCCC(=O)*; γGlu = O=C(O)[C@H](CCC(=O)[*:2])N[*:1]

Key:
[1] = target: T1, human amylin 3(a) receptor (human calcitonin receptor co-expressed with RAMP-3) (human, UniProt P30988 25-474; O60896 24-148, limits assumed); assay: cell-based or functional assay
T1 sequence (looked up) 1: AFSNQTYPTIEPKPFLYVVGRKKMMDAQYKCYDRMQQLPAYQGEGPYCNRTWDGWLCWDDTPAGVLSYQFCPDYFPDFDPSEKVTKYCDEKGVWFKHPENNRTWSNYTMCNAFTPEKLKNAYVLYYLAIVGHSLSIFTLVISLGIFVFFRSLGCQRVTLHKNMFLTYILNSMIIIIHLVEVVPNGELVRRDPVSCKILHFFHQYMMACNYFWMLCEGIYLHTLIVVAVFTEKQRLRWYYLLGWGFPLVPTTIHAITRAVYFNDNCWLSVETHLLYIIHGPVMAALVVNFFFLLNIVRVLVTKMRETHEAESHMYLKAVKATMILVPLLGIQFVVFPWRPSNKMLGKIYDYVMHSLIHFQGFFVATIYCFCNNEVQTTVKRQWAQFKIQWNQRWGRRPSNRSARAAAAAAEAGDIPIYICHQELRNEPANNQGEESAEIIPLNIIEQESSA
T1 sequence (looked up) 2: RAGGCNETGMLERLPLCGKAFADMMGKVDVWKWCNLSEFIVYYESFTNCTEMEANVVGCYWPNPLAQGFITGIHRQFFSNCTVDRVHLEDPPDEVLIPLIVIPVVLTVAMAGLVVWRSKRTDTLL

[2] = target: T2, human calcitonin receptor (human, UniProt P30988 25-474); assay: cell-based or functional assay
T2 sequence (looked up): T1 sequence (looked up) 1

hAmylin-R funct. EC50 (pM) [1]: 72 pM
hCTR funct. EC50 (pM) [2]: 49 pM
B1: [N-terminal(C20 diacid-gGlu), des1, 4G, 9V, 15Q, 21Q, 23Y, 30S, 31Q, 32T, 33Y]mimylin (peptide)
peptide: {C20 diacid-γGlu}-ASGLSTAVLGRLSQELHELQTYPRTETGSQTY-NH2
SMILES: CC(C)C[C@H](NC(=O)CNC(=O)[C@H](CO)NC(=O)[C@H](C)NC(=O)CC[C@H](NC(=O)CCCCCCCCCCCCCCCCCCC(=O)O)C(=O)O)C(=O)N[C@@H](CO)C(=O)N[C@H](C(=O)N[C@@H](C)C(=O)N[C@H](C(=O)N[C@@H](CC(C)C)C(=O)NCC(=O)N[C@@H](CCCNC(=N)N)C(=O)N[C@@H](CC(C)C)C(=O)N[C@@H](CO)C(=O)N[C@@H](CCC(N)=O)C(=O)N[C@@H](CCC(=O)O)C(=O)N[C@@H](CC(C)C)C(=O)N[C@@H](Cc1c[nH]cn1)C(=O)N[C@@H](CCC(=O)O)C(=O)N[C@@H](CC(C)C)C(=O)N[C@@H](CCC(N)=O)C(=O)N[C@H](C(=O)N[C@@H](Cc1ccc(O)cc1)C(=O)N1CCC[C@H]1C(=O)N[C@@H](CCCNC(=N)N)C(=O)N[C@H](C(=O)N[C@@H](CCC(=O)O)C(=O)N[C@H](C(=O)NCC(=O)N[C@@H](CO)C(=O)N[C@@H](CCC(N)=O)C(=O)N[C@H](C(=O)N[C@@H](Cc1ccc(O)cc1)C(N)=O)[C@@H](C)O)[C@@H](C)O)[C@@H](C)O)[C@@H](C)O)C(C)C)[C@@H](C)O

hAmylin-R funct. EC50 (pM) [1]: 41 pM
hCTR funct. EC50 (pM) [2]: 27 pM
B2: [N-terminal(C20 diacid-gGlu), des1, 4G, 15Q, 21Q, 23Y, 25H, 30S, 31G, 32T, 33Y]mimylin (peptide)
peptide: {C20 diacid-γGlu}-ASGLSTAALGRLSQELHELQTYPHTETGSGTY-NH2
SMILES: CC(C)C[C@H](NC(=O)CNC(=O)[C@H](CO)NC(=O)[C@H](C)NC(=O)CC[C@H](NC(=O)CCCCCCCCCCCCCCCCCCC(=O)O)C(=O)O)C(=O)N[C@@H](CO)C(=O)N[C@H](C(=O)N[C@@H](C)C(=O)N[C@@H](C)C(=O)N[C@@H](CC(C)C)C(=O)NCC(=O)N[C@@H](CCCNC(=N)N)C(=O)N[C@@H](CC(C)C)C(=O)N[C@@H](CO)C(=O)N[C@@H](CCC(N)=O)C(=O)N[C@@H](CCC(=O)O)C(=O)N[C@@H](CC(C)C)C(=O)N[C@@H](Cc1c[nH]cn1)C(=O)N[C@@H](CCC(=O)O)C(=O)N[C@@H](CC(C)C)C(=O)N[C@@H](CCC(N)=O)C(=O)N[C@H](C(=O)N[C@@H](Cc1ccc(O)cc1)C(=O)N1CCC[C@H]1C(=O)N[C@@H](Cc1c[nH]cn1)C(=O)N[C@H](C(=O)N[C@@H](CCC(=O)O)C(=O)N[C@H](C(=O)NCC(=O)N[C@@H](CO)C(=O)NCC(=O)N[C@H](C(=O)N[C@@H](Cc1ccc(O)cc1)C(N)=O)[C@@H](C)O)[C@@H](C)O)[C@@H](C)O)[C@@H](C)O)[C@@H](C)O

hAmylin-R funct. EC50 (pM) [1]: 57 pM
hCTR funct. EC50 (pM) [2]: 65 pM
B3: [N-terminal(C20 diacid-gGlu), des1, 4G, 9V, 15Q, 21Q, 23Y, 30S, 31G, 32T, 33Y]mimylin (peptide)
peptide: {C20 diacid-γGlu}-ASGLSTAVLGRLSQELHELQTYPRTETGSGTY-NH2
SMILES: CC(C)C[C@H](NC(=O)CNC(=O)[C@H](CO)NC(=O)[C@H](C)NC(=O)CC[C@H](NC(=O)CCCCCCCCCCCCCCCCCCC(=O)O)C(=O)O)C(=O)N[C@@H](CO)C(=O)N[C@H](C(=O)N[C@@H](C)C(=O)N[C@H](C(=O)N[C@@H](CC(C)C)C(=O)NCC(=O)N[C@@H](CCCNC(=N)N)C(=O)N[C@@H](CC(C)C)C(=O)N[C@@H](CO)C(=O)N[C@@H](CCC(N)=O)C(=O)N[C@@H](CCC(=O)O)C(=O)N[C@@H](CC(C)C)C(=O)N[C@@H](Cc1c[nH]cn1)C(=O)N[C@@H](CCC(=O)O)C(=O)N[C@@H](CC(C)C)C(=O)N[C@@H](CCC(N)=O)C(=O)N[C@H](C(=O)N[C@@H](Cc1ccc(O)cc1)C(=O)N1CCC[C@H]1C(=O)N[C@@H](CCCNC(=N)N)C(=O)N[C@H](C(=O)N[C@@H](CCC(=O)O)C(=O)N[C@H](C(=O)NCC(=O)N[C@@H](CO)C(=O)NCC(=O)N[C@H](C(=O)N[C@@H](Cc1ccc(O)cc1)C(N)=O)[C@@H](C)O)[C@@H](C)O)[C@@H](C)O)[C@@H](C)O)C(C)C)[C@@H](C)O
